Measurements reported in paper PMC2816676, “DNA Binding of Centromere Protein C (CENPC) Is Stabilized by Single-Stranded RNA”.

T1: CENPC full length (Zea mays) (UniProt Q9XHE1)
T1 sequence: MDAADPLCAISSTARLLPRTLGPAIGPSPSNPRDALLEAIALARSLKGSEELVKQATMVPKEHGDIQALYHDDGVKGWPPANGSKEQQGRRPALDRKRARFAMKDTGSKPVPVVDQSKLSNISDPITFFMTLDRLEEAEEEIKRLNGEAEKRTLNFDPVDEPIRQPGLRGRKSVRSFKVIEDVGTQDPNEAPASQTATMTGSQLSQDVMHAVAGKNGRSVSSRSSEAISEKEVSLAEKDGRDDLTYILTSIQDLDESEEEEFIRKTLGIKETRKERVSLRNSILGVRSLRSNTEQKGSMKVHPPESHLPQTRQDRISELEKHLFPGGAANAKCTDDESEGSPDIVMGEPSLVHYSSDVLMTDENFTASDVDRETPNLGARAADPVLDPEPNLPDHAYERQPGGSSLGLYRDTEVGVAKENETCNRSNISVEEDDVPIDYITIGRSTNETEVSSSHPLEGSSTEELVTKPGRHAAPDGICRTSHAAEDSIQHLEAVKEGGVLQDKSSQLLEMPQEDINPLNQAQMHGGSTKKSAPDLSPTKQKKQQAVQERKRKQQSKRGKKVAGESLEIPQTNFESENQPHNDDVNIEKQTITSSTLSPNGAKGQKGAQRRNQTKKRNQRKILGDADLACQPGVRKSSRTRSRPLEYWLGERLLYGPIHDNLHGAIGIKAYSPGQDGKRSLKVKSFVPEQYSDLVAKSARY

T2: CENPC exon 1-5.7 (Zea mays, UniProt Q9XHE1 1-399)
T2 sequence: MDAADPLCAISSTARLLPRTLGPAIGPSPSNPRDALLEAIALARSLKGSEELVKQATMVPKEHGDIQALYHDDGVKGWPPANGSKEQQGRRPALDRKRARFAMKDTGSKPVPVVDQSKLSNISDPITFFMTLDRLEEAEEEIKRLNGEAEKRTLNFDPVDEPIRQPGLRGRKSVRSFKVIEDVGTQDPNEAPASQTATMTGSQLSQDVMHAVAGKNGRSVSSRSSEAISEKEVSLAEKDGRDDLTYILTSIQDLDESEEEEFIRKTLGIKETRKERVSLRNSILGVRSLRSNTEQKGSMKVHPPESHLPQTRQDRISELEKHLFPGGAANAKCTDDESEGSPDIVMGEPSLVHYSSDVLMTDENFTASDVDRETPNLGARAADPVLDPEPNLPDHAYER

T3: CENPC exon 1-8 (Zea mays, UniProt Q9XHE1 1-502)
T3 sequence: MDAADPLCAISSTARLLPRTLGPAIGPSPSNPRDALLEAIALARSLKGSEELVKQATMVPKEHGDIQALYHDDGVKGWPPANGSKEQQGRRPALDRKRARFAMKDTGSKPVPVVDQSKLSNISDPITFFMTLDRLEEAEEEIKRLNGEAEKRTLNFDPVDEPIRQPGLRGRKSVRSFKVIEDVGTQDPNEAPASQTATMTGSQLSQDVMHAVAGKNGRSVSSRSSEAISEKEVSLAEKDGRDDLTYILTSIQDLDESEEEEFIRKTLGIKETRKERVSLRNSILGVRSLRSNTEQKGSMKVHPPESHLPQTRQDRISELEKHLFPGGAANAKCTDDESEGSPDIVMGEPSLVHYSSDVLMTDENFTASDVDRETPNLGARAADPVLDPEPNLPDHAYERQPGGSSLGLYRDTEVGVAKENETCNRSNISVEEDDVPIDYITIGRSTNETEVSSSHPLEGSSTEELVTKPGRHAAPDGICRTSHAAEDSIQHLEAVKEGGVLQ

T4: CENPC Δexon 9-12 (Zea mays, UniProt Q9XHE1 1-701, del503-624)
T4 sequence: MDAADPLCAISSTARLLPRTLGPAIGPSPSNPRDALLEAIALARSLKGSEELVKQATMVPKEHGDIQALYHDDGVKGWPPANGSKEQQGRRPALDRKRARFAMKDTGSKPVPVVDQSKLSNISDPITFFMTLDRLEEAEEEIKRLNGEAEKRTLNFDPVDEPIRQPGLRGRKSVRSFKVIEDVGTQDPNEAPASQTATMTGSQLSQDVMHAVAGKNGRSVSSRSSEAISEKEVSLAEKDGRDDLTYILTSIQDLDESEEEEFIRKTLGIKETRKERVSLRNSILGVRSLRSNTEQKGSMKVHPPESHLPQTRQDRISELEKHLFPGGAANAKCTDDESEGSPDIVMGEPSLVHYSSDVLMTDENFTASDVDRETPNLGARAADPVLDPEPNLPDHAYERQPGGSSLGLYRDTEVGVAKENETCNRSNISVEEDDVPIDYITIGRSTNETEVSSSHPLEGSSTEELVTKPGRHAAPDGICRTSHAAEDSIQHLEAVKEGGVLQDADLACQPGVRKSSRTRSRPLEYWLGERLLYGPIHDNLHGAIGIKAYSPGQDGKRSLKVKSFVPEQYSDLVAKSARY

B1: CentC 44 bp DSDNA (dsDNA)
DNA 1: AATGGGTGACGTGCGGCAACGAAATTGCGCGAAACCACCCCAAA
DNA 2: TTTGGGGTGGTTTCGCGCAATTTCGTTGCCGCACGTCACCCATT

Tests used:
[1] = biological target: T1, CENPC full length (Zea mays); experiment: EMSA; details: 10 mM Tris pH 7.5, 50 mM NaCl, 0.5 mM DTT, 0.5 mM EDTA, 1 mM MgCl2, 4% glycerol, 20 µl, on ice 20 min; 5% PAGE
[2] = biological target: T2, CENPC exon 1-5.7; experiment: EMSA; 10 mM Tris pH 7.5, 50 mM NaCl, 0.5 mM DTT, 0.5 mM EDTA, 1 mM MgCl2, 4% glycerol, 20 µl, on ice 20 min; 5% PAGE; details: protein: recombinant; tags: His (pET28a); blunt
[3] = biological target: T3, CENPC exon 1-8; experiment: as above; details: protein: recombinant; tags: His (pET28a); blunt
[4] = biological target: T4, CENPC Δexon 9-12; experiment: as above; details: protein: recombinant; tags: His (pET28a); blunt
[5] = biological target: HIV integrase DNA-binding domain (IntBD) (HIV, UniProt Q9WJL1 220-270); experiment: EMSA; no RNA; 10 mM Tris pH 7.5, 50 mM NaCl, 0.5 mM DTT, 0.5 mM EDTA, 1 mM MgCl2, 4% glycerol, 20 µl, on ice 20 min; 5% PAGE; details: chain copies: 2; blunt

| Molecule | binding signal [1] [% bound] | binding result [2] | binding result [3] | binding result [4] | binding result [5] |
| --- | --- | --- | --- | --- | --- |
| CentC 156 bp DSDNA | 95.9 | – | – | – | – |
| CentC 67 bp DSDNA | 85.3 | – | – | – | – |
| B1 | – | no binding | no binding | no binding | binds |
